Test results: US20070141665A1

Target: Cavβ3-I-II2.1 chimera (rat β3 subunit fused at its C-terminal end to the I-II loop of the rabbit Cavα2.1 subunit), [35S]-labelled (rat; rabbit) (UniProt P54287)
Test: Gβγ (10 to 900 nM) displaces the intramolecular Cavβ-AID2.1 binding of [35S] Cavβ3-I-II2.1; read as binding of the chimera to GST-AID1.2 after 30 min at 30 °C, SDS-PAGE and autoradiography

UniProt P54287, sequence (P54287 other isoform, or with tags, fused parts or gaps mutant): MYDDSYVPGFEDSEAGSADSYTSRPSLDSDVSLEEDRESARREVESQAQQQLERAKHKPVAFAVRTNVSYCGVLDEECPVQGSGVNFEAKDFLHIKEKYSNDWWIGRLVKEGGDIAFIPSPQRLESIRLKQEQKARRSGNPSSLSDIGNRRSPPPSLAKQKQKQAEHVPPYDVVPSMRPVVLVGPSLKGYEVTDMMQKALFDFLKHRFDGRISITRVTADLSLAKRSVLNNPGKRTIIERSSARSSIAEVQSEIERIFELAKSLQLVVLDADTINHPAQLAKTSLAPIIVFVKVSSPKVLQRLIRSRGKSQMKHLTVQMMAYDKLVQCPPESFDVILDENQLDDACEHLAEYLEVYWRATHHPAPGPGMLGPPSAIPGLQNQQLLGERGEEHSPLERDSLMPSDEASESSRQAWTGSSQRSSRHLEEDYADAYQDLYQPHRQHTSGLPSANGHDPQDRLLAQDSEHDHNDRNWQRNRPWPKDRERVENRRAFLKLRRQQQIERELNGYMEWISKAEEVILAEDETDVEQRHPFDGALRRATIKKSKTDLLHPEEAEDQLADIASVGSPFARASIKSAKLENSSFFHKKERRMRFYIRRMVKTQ

Work on G-protein Gβγ complex (Calbiochem) yielded an IC50 of 160 nM.
